In article PMC3905892 (Nucleic Acids Research, 2013):

Biological target: Paf1(57–392) (human, UniProt Q8N7H5 57-392)
Test: SEC

stoichiometry N: 1
B1: Leo1(277–562) (domain or fragment)
chain: SDSEDEVLRMKRKNAIASDSEADSDTEVPKDNSGTMDLFGGADDISSGSDGEDKPPTPGQPVDENGLPQDQQEEEPIPETRIEVEIPKVNTDLGNDLYFVKLPNFLSVEPRPFDPQYYEDEFEDEEMLDEEGRTRLKLKVENTIRWRIRRDEEGNEIKESNARIVKWSDGSMSLHLGNEVFDVYKAPLQGDHNHLFIRQGTGLQGQAVFKTKLTFRPHSTDSATHRKMTLSLADRCSKTQKIRILPMAGRDPECQRTEMIKKEEERLRASIRRESQQRRMREKQHQ
